17 sequences from a protein production outcome set (Wang et al. 2014) can be followed below.

This data set in a line: label from the status in PepcDB records.

Take “MAGRRMKRLRAFFYVQHLLGIGHLARASRIAAALADDGFDITVVTGGPPIAGFPGQGVKSVTLPPVTSGDNGFSGLVDLQGKPIDDDFKKRRSEMLLQAFRDCRPDIVIVEAFPFGRRQMRFELLPLLETIEATSPRPLLATSVRDILQERVKPGRNEETVDLINRHFDLVMVHGDPAFTTIDKTFPLAGAITAEVTYTGLVGAPPSPAAAERFDILVSVGGGAAGRRLVSSTLAAARIANGWKWCLITGPNLPKDEFDVIACDATPGLSIFRFREDFASLLTGARLSVSQAGYNTVCDVLRAGCRSLLVPFAAGGETEQTVRALMLEELGLATVLTENDLTPDGLAQAIEQALAGPTPSAHRLDLEGARHSAQILRERYRTWSLKMGSGFGKEHDQTDDGS”: the protein production entry is “failed”. With “MAGSVACRLRPGMAAGGTGMKRYVIFAAIGPLIGGLLLLFATTYQSGYWAHTNLTEVQKFFVVLFKSLQYSYLFGLLPALMMAAIDEIICHIRRVGPGGRVVIVGVIGFLATAFMYGNRGADAGVLQFVLYGLVGLVPATLSSWLANKFCAPVTAETKPASA” the entry was “failed”; with “MAGSVADSDAVVKLDDGHLNNSLSSPVQADVYFPRLIVPFCGHIKGGMRPGKKVLVMGIVDLNPESFAISLTCGDSEDPPADVAIELKAVFTDRQLLRNSCISGERGEEQSAIPYFPFIPDQPFRVEILCEHPRFRVFVDGHQLFDFYHRIQTLSAIDTIKINGDLQITKLG”, “failed”; with “MAGTDFEPDVKVRSREYRIGCVGAGMIMAECHLAAYAQAGFPVVAIASRTKASAEKVARRWDIPIVHDTPEQLIEDSKVEIVDLAFPPDQQPALIRHALKQPHIKAILAQKPLALTVEEAIKLRDEAAKSGKILSVNQNMRYDQSMRVLKQIIDSGALGDIVFAQIDMHAIPHWQAFLADYDRLTLANMSVHHLDVLRFLFGDPHEITTLTRKDPRTTFDHSDGITVSTLRFPSGVLAVSLEDVWSGPREQGYRDDQHINWRVDGTKGVAKGTIGWPTGVASTLTYASTQTTGGEWVTPSWDTMWFPHAFIGVMEQLQYAVKTGTPPALSVADNVKTMALVEAGYRSMAEGRTVRLSEISTN”, “failed”. With “MAGTIAIKNGYVFDPLNEINGEKMDIFIRDGKVVKELSASEMKTSRVIDASGMTVMPGGVDSHSHVAGAKVNAGRSMRPEDHYKANLKKTPLTHSGSGYTVPSVYKQGYDYAAMGYTTVFEAAVPPLEARHTHEEMRATPLLDMGGYLVLGNNFFLMRYLRDGDMEKAAAYVAWMMKTHKTYGIKCVNPAGVENWAWGKNVSTLDETNIHFEITPREVIKGLTEVNETLGMPMPVHLHANNLGHPGCYAITKDSLKIPDGVKTKQNMAVEWAETKMDLSRDRSVYLTHLMFNSFAGTTWGDCESGVKDIADYINNKDHVVIDSGCTPFGEATVMTGDGPAIHDLYTLTGNKWSNTDVEMECGSGVLPFTYLKSNPVHSLQWAMGLECLLLIKDPWKTIMTTDSPNGGPFTKYPEVMTWIMSEAFRKQTFSECHKWANDRSELGGINRELSLYDLAILTRANPAKTIGMAHRKGSLGVGADGDVTVYNINPQQLDANNYEALLRTFRKAEYTVKGGEIVAVKGEIVSLPEKRTYYSEVHVENEREKEMLVDVKEWFRYYTLGFANYSTPEKYLANPTPIQVNSER” the entry was “failed”; with “MAGYVGDVAIAYDRDLGHVLFEQYASDIARRTAGKPVRDVLEVASGTGIVTRQLRNVLPGDAQLTAIDISDSMMEVARTKFLPHEQVTFQVANAVALPFDDRAFDTVVCQFGVMFFDKDKAFQETHRVLRQGGRYLFSVWDSRDYNPYASLTFEVMKQFFPSDPPRFLESTVSSFEIDPVKERLIRAGFEQISISVQRRIYDIPDIRAFARGLIFSPIINEIRERGEVDPDDIVEALVKIFIGEYGSNPTRFPMQAILFETEKPLEHHHHHH”, “failed”.

Regarding “MAHHTKETMELIKELVSIPSPSGNTAKIINFIENYVSEWNVETKRNNKGALILTVKGKNDAQHRLLTAHVDTLGAMVKEIKPDGRLSLSMIGGFRWNSVEGEYCEIETSSGKTYTGTILMHQTSVHVYKDAGEAKRDEKNIEVRIDERVFSADEVRELGIEVGDFVSFDPRVQITESGYIKSRHLDDKVSVAILLKLIKRLQDENVTLPYTTHFLISNNEEIGYGGNSNIPEETVEYLAVDMGALGDGQASDEYTVSICAKDSSGPYHYALRKHLVELAKTNHIEYKVDIYPYYGSDASAAIRAGFDVKHALIGAGIDSSHAFERTHESSIAHTEALVYAYVMSNLIEE”, the protein production entry is recorded as “not failed”. With “MAHRTWGGRFGEGPDALAARFNASLAFDRALWREDLWQNRVHARMLHAVGLLSAEELEAILKGLDRIEEEIEAGTFPWREELEDVHMNLEARLTELVGPPGGKLHTARSRNDQVATDLRLYLRGAIDELLALLLALRRVLVREAEKHLDPLYVLPGYTHLQRAQPVLLAHWFLAYYEMLKRDAGRLEDAKERLNESPLGAAALAGTGFPIDRHFTARELGFKAPMRNSLDAVASRDFALEVLSALNIGMLHLSRMAEELILYSTEEFGFVEVPDAFATGSSIMPQKKNPDILELIRAKAGRVLGAFVGLSAVVKGLPLAYNKDLQEDKEPLLDALATYRDSLRLLAALLPGLKWRRERMWRAAEGGYTLATELADYLAEKGLPFREAHHVVGRLVRRLVEEGRALKDLTLEELQAHHPLFAEDALPLLRLETAIHRRRSYGGTAPEAVRERLEEAKKEVGLD” the entry was “not failed”; with “MAHSGDNHSSEFCMLRSLSASIGADPLLVQGAGGNTSIKQAGVLWIKASGTWLKNARDDEIMVPVALAPLLDAVSHRSPAAEAAGQFTLADLNPRQLRPSIETTVHALLPQKIVVHVHCVETISIAVQANAEALLEGRLRGLDWAFVPYRRPGLPLAQAIAERLKPATNVLVLGNHGLVVAADTVAEAALLLQRVTGLLARQPRPAPPPDLDALLRLAAGSDYRLPASTAAHAVATDLASCRIAASGSLYPDHVIFLGVGSVIAGPGENAAAVVARTAAAPTSILFPGKGVLMRREANAGAEAMARCLADVVARVDGAARVNYLSPKENAELLNWDAEKYRQQLNREGATLQLEHHHHHH”, “failed”.

As to “MAIAFHTFLLQLLLFFFASFAEANDSRKTYLVQMKVGGHRYGSSSGHQELLGEVLDDDSYKESFTGFSASLTPRERQKLMSKTTTVSSRRREVLEVSRSRNLKLQTTRSWDFMNLTLKAERNPENESDLVVAVIDSGIWPYSELFGSDSPPPPGWENKCENITCNNKIVGARSYYPKKEKYKWVEEKSVIDVTGHGTHVASIVAGRKVEKAGYFGLAEGTMRGGVPNAKIAVYKTCWRVIRKNGREDSVCREDNILKAIDDAIADKVDIISYSQGFQFTPLQKDKVSWAFLRALKNGILTSAAAGNYANNGKFYYTVANGAPWVMTVAASLKDRIFETKLELEGEDKPIIVYDTINTFETQDSFYPLLNEKAPPESTRKRELIAERNGYSILSNYDEKDKGKDVFFEFAQINLLDEAIKEREKGAIVLGGKSYDFNESIKLQFPIASIFLDEQKKGKLWDYYKKDQSKERLAKIHKTEEIPREEGWVPTVAHLSSRGPNCDSFLANILKPDIAAPGLDIIAGWPENVKLSSDRPANDYRHLRFNIMSGTSMACPHATGLALYLKSFKRWSPSAIKSALMTTSSEMTDDDNEFAYGSGHLNATKVRDPGLVYETHYQDYIDYLCKLGYNTEKLRSHVGSDKIDCSKTEIDHDADLNYPTMTARVPLPLDTPFKKVFHRTVTNVNDGEFTYLREINYRGDKDFDEIIVDPPQLKFSELGETKTFTVTVTGISKRNWNKNRAFMTRNTWLTWTEKDGSRQVRSPIVIYSIKGPKACM”, the protein production result is reported as “failed”. On to “MAIAPTIQPLPAPWVARMAAGEVIDSLAAVVRELCENSLDAGTQRLVIDLWPEQWRVRVADDGMGLSLENLQLAALAHTSSKLSPDRFTAEQLGFRGEALHSLARLGRLTIASRTADAAAGWQISYDIGGQPQVATPIAIAPGCIVEVQQLFQDWLERRQSQPSPAQQLRAVQQQIQNLVLAHPSITVQVTQNDRPWLAFAPVHHPQERLLQLLPNTSPADWRSQSLDLGSEGQLQVVVGLPDRCHRRRPDWVKVAVNGRVVRVSELEQAMIGALHRSLPRDRFPVVFAHLQVPPSQVDWHRHPAKAELFLQDLPVWCERIQEAIAQTLPLDPAEEIELPASTALLRVAETTGSYSESPSHLRAIAQVLNTYVLAEQGDSLWLIEQHIAHERVLFEQLQDDWQLVACQQPILLSKLSLEQRLQLDRLGITAEDFGEDLWAIRHIPAALAQREDLVEALLELSRGWDLSAAQAAIACRTAIRNGTLLYPEEQQTLIDRWQHCRQPRTCPHGRPIALVLPETSLARYFRRQWMIGRSHGLGDP”, for which the protein production result was “failed”. The result for “MAICKVFRNYCKENDIQLHQANFSLSYDTNIPRQTGLSGSSAIVSAALNCLLDFYNVRHLIKVQVRPNIVLSAEKELGIVAGLQDRVAQVYGGLVHMDFSKEHMDKLGHGIYTPMDISLLPPLHLIYAENPSDSGKVHSMVRQRWLDGDEFIISSMKEVGSLAEEGRTALLNKDHSKLVELMNLNFDIRRRMFGDECLGAMNIEMVEVARRVGAASKFTGSGGAVVVFCPEGPSQVKLLEEECRKAGFTLQPVKIAPSCLNDSDIQTL” reads “failed”.

As for “MAIDVCCSEASGSGISPRISFSYDLDSTDDGEVRLDSTLLDSGSEFDFCFGSSCSVQEVSPADELFSEGKILPVQIKKEESLPQTVTFRVPRSASLSSSSSSSSSSSSSSRAPEKKMRLKELLLNPESDFEDKPRGLFLQFKRSISLNYDKSRNSKGLIRSFHFLSRSNSTPNPNLDLLPKETHHPHKTHNLPKHKPPLRRSSSLSSSSVPFYSKKPLGRNSFGNGNGGVRVSPVLNFPPPAFISNVADGFFSIGSLCNGKTNTKTKL”, the protein production result was “failed”. As to “MAIEPSLISSLTWFAHVARHRSFTKAASEMGVTRAALSQHVKGLEKQLQVRLLNRTTRNMSLTEEGQRLLDTLHPSLSNIEQTLNSLNDLHIEPAGLIRISVSRTAARLLIEPHLGEFLSRYPKIRLELIMDDGLTNIVAEGMDAGIRLGVSLDEHMVAIPITPNLTNAIVGSPDYFKRYGKPETPNDLEHHNCLAYRFTSSGTLDHWSLTSPDVDKHTVIFEPKGNAVFNDDYSMLQAAMQGVGLIKHIDLWVLKYLEEGKLERVFVDWCKPFPGFYLYIPSRENMPKKIRVLMDFLIEKRAEL”, the protein production entry is reported as “failed”. For “MAIGERIRFFRNLRGMTQKYLGTVVGFPENTADIRMAQYESGSRTPKADLTENLAGVLGVSPLALSVPDIDSYLGLMHTLFTLEDRYGLTIEKGENGVSMCVDPRKGKDAAELSEMLNAWAKQAEKYHNGDISRELEHHHHHH”, the protein production entry is given as “not failed”. On to “MAIHVGIIDQDPVRLVTPLLDHRTVSRHIIFIGDHTQTVIYQRLSDVLNKRNISTDFFEIPAGSNTSAIKSAIRELAETLKARGEEVKFNASCGLRHRLLSAYEVFRSYHWPIFVVEPNSDCLCWLYPEGNNDTQVQDRITIADYLTIFGARGEFNEHQLSPQLDQQLYQLGERWASNALELGPGLATLNYLATTCRKEQKLDVELSDKQQGYRELNLLLSDLVEAKIASYENGILTFINEEARRFANGEWLETLVHSTVKQIQDDMPTIQDRSLNVQVYRQLGEREVRNELDVATVVNNKLHIIECKTKGMRDDGDDTLYKLESLRDLLGGLQARAMLVSFRPLRHNDITRAEDLGLALIGPDELKDLKTHLTQWFKAAGGN”, for which the protein production entry is reported as “not failed”. For “MAIKITPDEFSLLIQRLNKKWRVFAPSAEFRGGRFSDTDNIIYQRISGWRDLIWHEKSHMSPNTIIAPITETLFYFDKDTIQIAETDTSPIIIFARACDINAMSRLDYMYLSNGNNSDYSYQLLREHIRFVLIECEKSFENCFCVSMGTNKTDCYSAAMRFSDEGALVSIRDPFIEAAIQGLGQEADYTPSFVSENRETVVTPDSVCRDPQKIRDILTRHPLWDAYDSRCISCGRCTTGCPTCTCYSVFDVAYDENPQRGERRRQWASCMVPGFSDMAGGHGFREKPGERLRYRALHKVNDYKARNGIEHMCVGCGRCDDRCPQYIKFSLIINKMTAAVRQALAEEA”, the protein production result is “failed”.
